This is an account of results in patent publication US20260184815A1.

The target in experiment [1] is pKal catalytic domain Mutant 4 (human) (UniProt P03952). Put plainly: equilibrium Ki,app, fluorogenic substrate, tight binding fit.
Experiment [2] shares this target. Put plainly: equilibrium Ki,app, enzyme inhibition with fluorogenic substrate, tight binding fit.

pKal catalytic domain Mutant 4 (human), sequence (P03952 391-638, change not shown): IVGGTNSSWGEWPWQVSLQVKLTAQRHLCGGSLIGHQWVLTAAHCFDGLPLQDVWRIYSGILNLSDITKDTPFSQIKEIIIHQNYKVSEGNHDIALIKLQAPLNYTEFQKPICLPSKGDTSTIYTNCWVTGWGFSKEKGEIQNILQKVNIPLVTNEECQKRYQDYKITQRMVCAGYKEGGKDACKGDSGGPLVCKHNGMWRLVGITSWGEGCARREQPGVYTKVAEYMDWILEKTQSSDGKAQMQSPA

B1: DX-2922 (antibody, V domains shown)
VH: EVQLLESGGGLVQPGGSLRLSCAASGFTFSHYLMTWVRQAPGKGLEWVSYISPSGGHTIYADSVKGRFTISRDNSKNTLYLQMNSLRAEDTAVYYCARVARGIAARSRTSYFDYWGQGTLVTVSS
VL: EIVLTQSPGTLSLSPGERATLSCRTSQFVNSNYLAWYQQKPGQAPRLLIYGASSRATGIPDRFSGSGSGTDFTLTISRLEPEDFAVYYCQQSSRTPWTFGQGTKVEIK
Take B1: the Ki in experiment [1] and in experiment [2] was 0.25 nM throughout.

B2: X115-B07 (antibody, V domains shown)
VH: EVQLLESGGGLVQPGGSLRLSCAASGFTFSHYLMTWVRQAPGKGLEWVSYISPSGGHTIYADSVKGRFTISRDNSKNTLYLQMNSLRAEDTAVYYCAMVGQGIRGRSRTSYFAQWGQGTLVTVSS
VL: EIVLTQSPGTLSLSPGERATLSCRTSQFVNSNYLAWYQQKPGQAPRLLIYGASSRATGIPDRFSGSGSGTDFTLTISRLEPEDFAVYYCQQSSRTPWTFGQGTKVEIK
In the case of B2, the Ki in experiment [1] and in experiment [2] was 0.14 nM throughout.

B3: M145-D11 (Fab, V domains shown)
VH: EVQLLESGGGLVQPGGSLRLSCAASGFTFSHYRMSWVRQAPGKGLEWVSSIYPSGGRTVYADSVKGRFTISRDNSKNTLYLQMNSLRAEDTAVYYCAKDKFEWRLLFRGIGNDAFDIWGQGTMVTVSS
VL: QSVLTQPPSVSVSPGQTASITCSGDKLGDKYTSWYQQRPGQSPVLVIYQDIKRPSGIPERFSGSNSGNTATLTISGTQAMDEADYYCQAWDSPNARVFGSGTKVTVL
Take B3: the Ki in experiment [1] and in experiment [2] was 0.21 nM throughout.

B4: X115-A03 (antibody, V domains shown)
VH: EVQLLESGGGLVQPGGSLRLSCAASGFTFSHYIMMWVRQAPGKGLEWVSGIYSSGGITVYADSVKGRFTISRDNSKNTLYLQMNSLRAEDTAVYYCAWRRIGVPRRDSFDMWGQGTMVTVSS
VL: DIQMTQSPSTLSASVGDRVTITCRASQSISSWLAWYQQKPGKAPKLLIYKASTLESGVPSRFSGSGSGTEFTLTISSLQPDDFATYYCQQYNTYWTFGQGTKVEIK
In the case of B4, the Ki in experiment [1] and in experiment [2] was 0.13 nM in each case.

B5: X115-F02 (Fab, V domains shown)
VH: EVQLLESGGGLVQPGGSLRLSCAASGFTFSHYIMMWVRQAPGKGLEWVSGIYSSGGITVYADSVKGRFTISRDNSKNTLYLQMNSLRAEDTAVYYCAYRRIGVPRRDEFDIWGQGTMVTVSS
VL: DIQMTQSPSTLSASVGDRVTITCRASQSISSWLAWYQQKPGKAPKLLIYKASTLESGVPSRFSGSGSGTEFTLTISSLQPDDFATYYCQQYNTYWTFGQGTKVEIK
On to B5, for which the Ki in experiment [1] and in experiment [2] was 0.1 nM each time.

B6: X115-G04 (antibody, V domains shown)
VH: EVQLLESGGGLVQPGGSLRLSCAASGFTFSHYIMMWVRQAPGKGLEWVSGIYSSGGITVYADSVKGRFTISRDNSKNTLYLQMNSLRAEDTAVYYCAYRRTGVPRRDEFDIWGQGTMVTVSS
VL: DIQMTQSPSTLSASVGDRVTITCRASQSISSWLAWYQQKPGKAPKLLIYKASTLESGVPSRFSGSGSGTEFTLTISSLQPDDFATYYCQQYNTYWTFGQGTKVEIK
Regarding B6, the Ki in experiment [1] and in experiment [2] was 0.3 nM throughout.

B7: X115-D01 (antibody, V domains shown)
VH: EVQLLESGGGLVQPGGSLRLSCAASGFTFSIYSMHWVRQAPGKGLEWVSSIYPSRGMTWYADSVKGRFTISRDNSKNTLYLQMNSLRAEDTAVYYCAYRRTGIPRRDAFDIWGQGTMVTVSS
VL: DIQMTQSPSTLSASVGDRVTITCRASQSISSWLAWYQQKPGKAPKLLIYKASTLESGVPSRFSGSGSGTEFTLTISSLQPDDFATYYCQQYNTYWTFGQGTKVEIK
Regarding B7, the Ki in experiment [1] and in experiment [2] was 0.12 nM each time.

B8: M29-D09 (Fab, V domains shown)
VH: EVQLLESGGGLVQPGGSLRLSCAASGFTFSWYTMVWVRQAPGKGLEWVSYIYPSGGATFYADSVKGRFTISRDNSKNTLYLQMNSLRAEDTAVYYCAMGSYDYIWGFYSDHWGQGTLVTVSS
VL: QSALTQPPTVSVSPGQTARITCSGNKLGDKYVAWYQQKPGQSPMLVIYQDTKRPSRVSERFSGSNSANTATLSISGTQALDEADYYCQAWDSSIVIFGGGTRLTVL
Consider B8, for which the Ki in experiment [1] and in experiment [2] was 0.39 nM in each case.

B9: M35-G04 (antibody, V domains shown)
VH: EVQLLESGGGLVQPGGSLRLSCAASGFTFSYYHMSWVRQAPGKGLEWVSVISPSGGSTKYADSVKGRFTISRDNSKNTLYLQMNSLRAEDTAVYYCARGGSSDYAWGSYRRPYYFDYWGQGTLVTVSS
VL: DIQMTQSPATLSLSPGERATLSCRASQSVSSYLAWYQQKPGQAPRLLIYDASNRATGIPARFSGSGSGTDFTLTISSLEPEDFAVYYCQQRSNWPRGFTFGPGTKVDIK
On to B9, for which the Ki in experiment [1] and in experiment [2] was 0.8 nM in each case.

B10: M6-D09 (antibody, V domains shown)
VH: EVQLLESGGGLVQPGGSLRLSCAASGFTFSFYYMVWVRQAPGKGLEWVSVIYPSGGITVYADSVKGRFTISRDNSKNTLYLQMNSLRAEDTAVYYCARDKWAVMPPYYYYAMDVWGQGTTVTVSS
VL: DIQMTQSPSSLSASVGDRVTITCRASQSIRNYLNWYQQKPGKAPNLLIYAASTLQSGVPARFSGSGSGTDFTLTISSLQPEDFATYYCQQLSGYPHTFGQGTKLEIK
In the case of B10, the Ki in experiment [1] stood at 2.9 nM.

B11: M06-D09 (antibody, V domains shown)
VH: EVQLLESGGGLVQPGGSLRLSCAASGFTFSFYYMVWVRQAPGKGLEWVSVIYPSGGITVYADSVKGRFTISRDNSKNTLYLQMNSLRAEDTAVYYCARDKWAVMPPYYYYAMDVWGQGTTVTVSS
VL: DIQMTQSPSSLSASVGDRVTITCRASQSIRNYLNWYQQKPGKAPNLLIYAASTLQSGVPARFSGSGSGTDFTLTISSLQPEDFATYYCQQLSGYPHTFGQGTKLEIK
B11: the Ki in experiment [2] stood at 2.9 nM.
